In publication PMC6748613 (mAbs, 2019):
Numbering of substitutions follows the chain as printed.

B1: bH1 Fab variant Y^H33-M^H98-M^H99-R^L30b (Fab, V domains shown)
VH: not shown
VL: DIQMTQSPSSLSASVGDRVTITCRASQDIPRRISGYVAWYQQKPGKAPKLLIYWGSYLYSGVPSRFSGSGSGTDFTLTISSLQPEDFATYYCQQHYTTPPTFGQGTKVEIK
B2: bH1 Fab variant Y^H33-W^H98-R^H99-R^L30b (Fab, V domains shown)
VH: not shown
VL: B1 VL
B3: bH1 Fab variant Y^H33-M^H98-D^H99-R^L30b (Fab, V domains shown)
VH: not shown
VL: B1 VL
B4: bH1 Fab variant W^H33-F^H98-D^H99-R^L30b (Fab, V domains shown)
VH: EVQLVESGGGLVQPGGSLRLSCAASGFNIKDTWIHWVRQAPGKGLEWVARIYPTNGYTRYADSVKGRFTISADTSKNTAYLQMNSLRAEDTAVYYCSRWGGFDFYAMDYWGQGTLVTVSS
VL: B1 VL
B5: bH1 Fab variant W^H33-M^H98-D^H99-R^L30b (Fab, V domains shown)
VH: B4 VH with F102M
VL: B1 VL
B6: bH1 Fab variant W^H33-M^H98-G^H99-R^L30b (Fab, V domains shown)
VH: not shown
VL: B1 VL
B7: bH1 Fab variant W^H33-W^H98-M^H99-R^L30b (Fab, V domains shown)
VH: B4 VH with F102W, D103M
VL: B1 VL
B8: bH1 Fab variant W^H33-F^H98-G^H99-R^L30b (Fab, V domains shown)
VH: not shown
VL: B1 VL
B9: bH1 Fab variant W^H33-M^H98-M^H99-R^L30b (Fab, V domains shown)
VH: B4 VH with F102M, D103M
VL: B1 VL
B10: bH1 Fab variant W^H33-W^H98-D^H99-R^L30b (Fab, V domains shown)
VH: B4 VH with F102W
VL: B1 VL
B11: bH1 Fab variant Y^H33-W^H98-D^H99-R^L30b (Fab, V domains shown)
VH: not shown
VL: B1 VL

molecular target: vascular endothelial growth factor (VEGF)-A, isoform 165 (Homo sapiens, UniProt P15692-4); experiment: SPR

ΔΔG_bind against the parental Fab	Binder
-1.71 kcal/mol	B1
-0.97 kcal/mol	B2
-1.58 kcal/mol	B3
-2.04 kcal/mol	B4
-1.89 kcal/mol	B5
-1.51 kcal/mol	B6
-2.07 kcal/mol	B7
-1.09 kcal/mol	B8
-2.27 kcal/mol	B9
-2.57 kcal/mol	B10
-1.88 kcal/mol	B11
